{
  "source": "patent US9695228B2",
  "about": "“EGFR and c-Met fibronectin type III domain binding molecules” (Janssen Biotech, Inc., priority 2012, dated 2017)",
  "key": {"[1]": {"tested_on": "H292-HGF human lung cancer xenograft", "format": "in vivo", "settings": "for Tumor Size at day 23: day 23 after tumor inoculation, doses as printed with treatment", "procedure": "The H292-HGF cells were maintained in vitro in RPMI1640 medium supplemented with fetal bovine serum (10% v/v), and L-glutamine (2 mM) at 37° C. in an atmosphere of 5% CO2 in air. The cells were routinely subcultured twice weekly by trypsin-EDTA treatment. The cells growing in an exponential growth phase were harvested and counted for tumor inoculation.\nEach mouse was inoculated subcutaneously at the right flank region with H292-HGF tumor cells (2×10^6) in 0.1 ml of PBS with cultrex (1:1) for tumor development. The treatments were started when the mean tumor size reached 139 mm^3. […] The date of tumor cell inoculation was denoted as day 0.\nBefore commencement of treatment, all animals were weighed and the tumor volumes were measured. Since the tumor volume can affect the effectiveness of any given treatment, mice were assigned into groups using randomized block design based upon their tumor volumes. […] The randomized block design was used to assign experimental animals to groups. First, the experimental animals were divided into homogeneous blocks according to their initial tumor volume. Secondly, within each block, randomization of experimental animals to treatments was conducted.\nAt the time of routine monitoring, the animals were checked for any effects of tumor growth and treatments on normal behavior, such as mobility, visual estimation of food and water consumption, body weight gain/loss (body weights were measured twice weekly), eye/hair matting and any other abnormal effect.\nThe endpoint was whether tumor growth can be delayed or tumor bearing mice can be cured. Tumor size was measured twice weekly in two dimensions using a caliper, and the volume was expressed in mm^3 using the formula: V=0.5 a×b^2 where a and b are the long and short diameters of the tumor, respectively. The tumor size was then used for calculations of both T-C and T/C values. T-C was calculated with T as the time (in days) required for the mean tumor size of the treatment group to reach 1000 mm^3, and C was the time (in days) for the mean tumor size of the control group to reach the same size. The T/C value (in percent) was an indication of antitumor efficacy; T and C were the mean tumor volume of the treated and control groups, respectively, on a given day. Complete tumor regression (CR) is defined as tumors that are reduced to below the limit of palpation (62.5 mm^3). Partial tumor regression (PR) is defined as tumors that are reduced from initial tumor volume. A minimum duration of CR or PR in 3 or more successive tumor measurements is required for a CP or PR to be considered durable.\nAnimals for which the body weight loss exceeded 20%, or for which the mean tumor size of the group exceeds 2000 mm^3 were euthanized. The study was terminated after two weeks of observation after the final dose.\nStatistical analyses of difference in tumor volume among the groups were evaluated using a one-way ANOVA followed by individual comparisons using Games-Howell (equal variance not assumed). All data were analyzed using SPSS 18.0. p<0.05 was considered to be statistically significant."}, "c-Met-Fc fusion protein": {"target": "T1, c-Met-Fc fusion protein (Homo sapiens, UniProt P08581)", "T1 construct": "recombinant EGFR and/or c-Met extracellular domain was further analyzed by surface Plasmon resonance", "T1 sequence (P08581 25-932 limits assumed)": "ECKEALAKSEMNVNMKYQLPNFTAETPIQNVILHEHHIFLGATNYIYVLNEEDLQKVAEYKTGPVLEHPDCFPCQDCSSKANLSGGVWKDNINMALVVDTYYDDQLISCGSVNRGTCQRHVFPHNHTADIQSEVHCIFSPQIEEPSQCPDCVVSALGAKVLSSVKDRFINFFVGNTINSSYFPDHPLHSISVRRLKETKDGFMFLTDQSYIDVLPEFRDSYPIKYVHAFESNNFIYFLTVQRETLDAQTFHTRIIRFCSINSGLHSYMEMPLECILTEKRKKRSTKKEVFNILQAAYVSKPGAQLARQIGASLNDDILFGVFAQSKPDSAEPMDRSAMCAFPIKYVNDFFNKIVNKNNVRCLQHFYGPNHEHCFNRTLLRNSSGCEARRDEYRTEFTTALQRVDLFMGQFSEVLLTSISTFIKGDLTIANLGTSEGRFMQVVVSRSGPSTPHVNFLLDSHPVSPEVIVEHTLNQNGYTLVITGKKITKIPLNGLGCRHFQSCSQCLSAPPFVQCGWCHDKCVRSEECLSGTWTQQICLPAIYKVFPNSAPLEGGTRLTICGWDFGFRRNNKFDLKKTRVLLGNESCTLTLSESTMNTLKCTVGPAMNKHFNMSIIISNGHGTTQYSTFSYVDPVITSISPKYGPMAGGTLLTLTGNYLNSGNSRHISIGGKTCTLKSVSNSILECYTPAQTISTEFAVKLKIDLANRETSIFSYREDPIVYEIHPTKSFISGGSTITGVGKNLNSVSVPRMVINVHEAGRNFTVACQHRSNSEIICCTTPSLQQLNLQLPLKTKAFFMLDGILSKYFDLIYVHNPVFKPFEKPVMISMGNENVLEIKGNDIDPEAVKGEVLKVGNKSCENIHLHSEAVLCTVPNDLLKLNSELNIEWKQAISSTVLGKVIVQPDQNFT", "assay": "c-Met-Fc affinity by surface plasmon resonance (ProteOn)", "format": "binding", "settings": "for binding to c-Met (in words): SPR; for Kd / ka / kd: serine mutants of A3 in the context of ECB15, SPR"}, "[2]": {"assay": "Differential scanning calorimetry in PBS (thermal stability)", "format": "physicochemical", "settings": "DSC in PBS, c-Met-binding FN3 domains"}},
  "note": "Read-outs that look alike come from different tables or passages of the source.",
  "data": [
    {"molecule": "C[C@@H](Oc1cc(-c2cnn(C3CCNCC3)c2)cnc1N)c1c(Cl)ccc(F)c1Cl", "note": "[Crizotinib, crizotinib, reference compound]", "values": [
      {"measurement": "T-C at 1000 mm^3 (tumor growth delay)", "setting": "[1]; compared with the vehicle group", "result": -1, "unit": "days"},
      {"measurement": "Tumor volume", "setting": "[1]; day 7 (start of treatment), mean ± SEM, doses as in column head", "result": "140 ± 9", "unit": "mm^3"},
      {"measurement": "Tumor volume", "setting": "[1]; day 9, mean ± SEM", "result": "217 ± 20", "unit": "mm^3"},
      {"measurement": "Tumor volume", "setting": "[1]; day 13, mean ± SEM", "result": "547 ± 43", "unit": "mm^3"},
      {"measurement": "Tumor volume", "setting": "[1]; day 16, mean ± SEM", "result": "914 ± 92", "unit": "mm^3"},
      {"measurement": "Tumor volume", "setting": "[1]; day 20, mean ± SEM", "result": "1438 ± 239", "unit": "mm^3"},
      {"measurement": "T/C", "setting": "[1]; day 23", "result": 120, "unit": "%"},
      {"measurement": "Tumor volume", "setting": "[1]; day 23, mean ± SEM", "result": "2102 ± 298", "unit": "mm^3"},
      {"measurement": "Tumor Size at day 23", "setting": "[1]", "result": "2102 ± 298", "unit": "mm^3"},
      {"measurement": "Tumor Size at day 23", "setting": "[1]; listed as crizotinib", "result": "2,102 mm^3"},
      {"measurement": "antitumor activity (in words)", "setting": "[1]; doses as in Table 14", "result": "no antitumor activity"},
      {"measurement": "tolerability / body weight loss (in words)", "setting": "[1]; doses as in Table 14", "result": "More severe body weight loss"}
    ]},
    {"molecule": "C#Cc1cccc(Nc2ncnc3cc(OCCOC)c(OCCOC)cc23)c1", "note": "[Erlotinib, erlotinib, reference compound]", "values": [
      {"measurement": "tolerability / body weight loss (in words)", "setting": "[1]; doses as in Table 14", "result": "More severe body weight loss"}
    ]},
    {"molecule": "A3 M72S: serine mutant of c-Met domain A3 in the context of ECB15, SEQ ID NO: 220 (protein, c-Met binding FN3 domain) LPAPKNLVVSRVTEDSARLSWTAPDAAFDSFWIRYFEFLGSGEAIVLTVPGSERSYDLTGLKPGTEYVVNISGVKGGKISPPLSAIFTT", "values": [
      {"measurement": "binding to c-Met (in words)", "setting": "c-Met-Fc fusion protein", "result": "No binding was measurable"},
      {"measurement": "Kd", "setting": "c-Met-Fc fusion protein", "result": "> 1", "unit": "µM"}
    ]},
    {"molecule": "A3 V68S: serine mutant of c-Met domain A3 in the context of ECB15, SEQ ID NO: 215 (protein, c-Met binding FN3 domain) LPAPKNLVVSRVTEDSARLSWTAPDAAFDSFWIRYFEFLGSGEAIVLTVPGSERSYDLTGLKPGTEYSVNIMGVKGGKISPPLSAIFTT", "values": [
      {"measurement": "ka", "setting": "c-Met-Fc fusion protein", "result": 329000, "unit": "M⁻¹ s⁻¹"},
      {"measurement": "kd", "setting": "c-Met-Fc fusion protein", "result": 0.0012, "unit": "s⁻¹"}
    ]},
    {"molecule": "A3 F36S: serine mutant of c-Met domain A3 in the context of ECB15, SEQ ID NO: 218 (protein, c-Met binding FN3 domain) LPAPKNLVVSRVTEDSARLSWTAPDAAFDSFWIRYSEFLGSGEAIVLTVPGSERSYDLTGLKPGTEYVVNIMGVKGGKISPPLSAIFTT", "values": [
      {"measurement": "ka", "setting": "c-Met-Fc fusion protein", "result": 188000, "unit": "M⁻¹ s⁻¹"},
      {"measurement": "kd", "setting": "c-Met-Fc fusion protein", "result": 0.00512, "unit": "s⁻¹"}
    ]},
    {"molecule": "A3 P81S: serine mutant of c-Met domain A3 in the context of ECB15, SEQ ID NO: 217 (protein, c-Met binding FN3 domain) LPAPKNLVVSRVTEDSARLSWTAPDAAFDSFWIRYFEFLGSGEAIVLTVPGSERSYDLTGLKPGTEYVVNIMGVKGGKISSPLSAIFTT", "values": [
      {"measurement": "ka", "setting": "c-Met-Fc fusion protein", "result": 321000, "unit": "M⁻¹ s⁻¹"},
      {"measurement": "kd", "setting": "c-Met-Fc fusion protein", "result": 0.000536, "unit": "s⁻¹"}
    ]},
    {"molecule": "A3 L39S: serine mutant of c-Met domain A3 in the context of ECB15, SEQ ID NO: 214 (protein, c-Met binding FN3 domain) LPAPKNLVVSRVTEDSARLSWTAPDAAFDSFWIRYFEFSGSGEAIVLTVPGSERSYDLTGLKPGTEYVVNIMGVKGGKISPPLSAIFTT", "values": [
      {"measurement": "ka", "setting": "c-Met-Fc fusion protein", "result": 475000, "unit": "M⁻¹ s⁻¹"},
      {"measurement": "kd", "setting": "c-Met-Fc fusion protein", "result": 0.00127, "unit": "s⁻¹"}
    ]},
    {"molecule": "A3 179S: serine mutant of c-Met domain A3 in the context of ECB15, SEQ ID NO: 223 (protein, c-Met binding FN3 domain) LPAPKNLVVSRVTEDSARLSWTAPDAAFDSFWIRYFEFLGSGEAIVLTVPGSERSYDLTGLKPGTEYVVNIMGVKGGKSSPPLSAIFTT", "values": [
      {"measurement": "binding to c-Met (in words)", "setting": "c-Met-Fc fusion protein", "result": "No binding was measurable"},
      {"measurement": "Kd", "setting": "c-Met-Fc fusion protein", "result": "> 1", "unit": "µM"}
    ]},
    {"molecule": "P114AR7P93-G8: c-Met-binding FN3 domain, SEQ ID NO: 39 (protein, c-Met binding FN3 domain) LPAPKNLVVSRVTEDSARLSWTAPDAAFDSFWIRYFEFLGSGEAIVLTVPGSERSYDLTDLKPGTEYGVTINGVKGGRVSTPLSAIFTT", "values": [
      {"measurement": "Thermal Stability (Tm)", "setting": "[2]", "result": 76.8, "unit": "C."}
    ]},
    {"molecule": "A3 R34S: serine mutant of c-Met domain A3 in the context of ECB15, SEQ ID NO: 221 (protein, c-Met binding FN3 domain) LPAPKNLVVSRVTEDSARLSWTAPDAAFDSFWISYFEFLGSGEAIVLTVPGSERSYDLTGLKPGTEYVVNIMGVKGGKISPPLSAIFTT", "values": [
      {"measurement": "binding to c-Met (in words)", "setting": "c-Met-Fc fusion protein", "result": "No binding was measurable"},
      {"measurement": "Kd", "setting": "c-Met-Fc fusion protein", "result": "> 1", "unit": "µM"}
    ]},
    {"molecule": "A3 K78S: serine mutant of c-Met domain A3 in the context of ECB15, SEQ ID NO: 212 (protein, c-Met binding FN3 domain) LPAPKNLVVSRVTEDSARLSWTAPDAAFDSFWIRYFEFLGSGEAIVLTVPGSERSYDLTGLKPGTEYVVNIMGVKGGSISPPLSAIFTT", "values": [
      {"measurement": "ka", "setting": "c-Met-Fc fusion protein", "result": 440000, "unit": "M⁻¹ s⁻¹"},
      {"measurement": "kd", "setting": "c-Met-Fc fusion protein", "result": 0.00015, "unit": "s⁻¹"}
    ]},
    {"molecule": "A3 F38S: serine mutant of c-Met domain A3 in the context of ECB15, SEQ ID NO: 222 (protein, c-Met binding FN3 domain) LPAPKNLVVSRVTEDSARLSWTAPDAAFDSFWIRYFESLGSGEAIVLTVPGSERSYDLTGLKPGTEYVVNIMGVKGGKISPPLSAIFTT", "values": [
      {"measurement": "ka", "setting": "c-Met-Fc fusion protein", "result": 45100, "unit": "M⁻¹ s⁻¹"},
      {"measurement": "kd", "setting": "c-Met-Fc fusion protein", "result": 0.0323, "unit": "s⁻¹"}
    ]},
    {"molecule": "A3 N70S: serine mutant of c-Met domain A3 in the context of ECB15, SEQ ID NO: 216 (protein, c-Met binding FN3 domain) LPAPKNLVVSRVTEDSARLSWTAPDAAFDSFWIRYFEFLGSGEAIVLTVPGSERSYDLTGLKPGTEYVVSIMGVKGGKISPPLSAIFTT", "values": [
      {"measurement": "ka", "setting": "c-Met-Fc fusion protein", "result": 425000, "unit": "M⁻¹ s⁻¹"},
      {"measurement": "kd", "setting": "c-Met-Fc fusion protein", "result": 0.00249, "unit": "s⁻¹"}
    ]},
    {"molecule": "P114AR7P92-G8: c-Met-binding FN3 domain, SEQ ID NO: 36 (protein, c-Met binding FN3 domain) LPAPKNLVVSRVTEDSARLSWTAPDAAFDSFVIRYFEFLGSGEAIVLTVPGSERSYDLTGLKPGTEYVVQILGVKGGYISIPLSAIFTT", "values": [
      {"measurement": "Thermal Stability (Tm)", "setting": "[2]", "result": 90.9, "unit": "C."}
    ]},
    {"molecule": "A3 W32S: serine mutant of c-Met domain A3 in the context of ECB15, SEQ ID NO: 219 (protein, c-Met binding FN3 domain) LPAPKNLVVSRVTEDSARLSWTAPDAAFDSFSIRYFEFLGSGEAIVLTVPGSERSYDLTGLKPGTEYVVNIMGVKGGKISPPLSAIFTT", "values": [
      {"measurement": "ka", "setting": "c-Met-Fc fusion protein", "result": 289000, "unit": "M⁻¹ s⁻¹"},
      {"measurement": "kd", "setting": "c-Met-Fc fusion protein", "result": 0.0086, "unit": "s⁻¹"}
    ]},
    {"molecule": "P114AR7P92-H5: c-Met-binding FN3 domain, SEQ ID NO: 37 (protein, c-Met binding FN3 domain) LPAPKNLVVSRVTEDSARLSWTAPDAAFDSFWIRYLEFLLGGEAIVLTVPGSERSYDLTGLKPGTEYVVQIMGVKGGTVSPPLSAIFTT", "values": [
      {"measurement": "Thermal Stability (Tm)", "setting": "[2]", "result": 87, "unit": "C."}
    ]},
    {"molecule": "A3 G40S: serine mutant of c-Met domain A3 in the context of ECB15, SEQ ID NO: 213 (protein, c-Met binding FN3 domain) LPAPKNLVVSRVTEDSARLSWTAPDAAFDSFWIRYFEFLSSGEAIVLTVPGSERSYDLTGLKPGTEYVVNIMGVKGGKISPPLSAIFTT", "values": [
      {"measurement": "ka", "setting": "c-Met-Fc fusion protein", "result": 185000, "unit": "M⁻¹ s⁻¹"},
      {"measurement": "kd", "setting": "c-Met-Fc fusion protein", "result": 0.00032, "unit": "s⁻¹"}
    ]}
  ]
}
